We go through 4 molecules from PMC8682777, “Mechanisms of distinctive mismatch tolerance between Rad51 and Dmc1 in homologous recombination” (Nucleic Acids Research, 2021).

The target in series [1] is T1, hRAD51 wt (Homo sapiens (human), UniProt Q06609 1-339). Nature of the series: cryo-EM; 4 mM AMP-PNP, 4 mM Mg2+, RS-1; presynaptic complex; hRAD51: 25 mM HEPES pH 7.5, 25 mM KCl, 4 mM MgCl2, 4 mM AMP-PNP, 37 C; ScDmc1: 35 mM Tris-HCl pH 7.5, 96 mM KCl, 2 mM ATP, 5 mM CaCl2, 1 mM DTT, 37 C. Strand-exchange/smFRET activity assays and MM-GBSA energies not listed. Conditions: protein: recombinant; chain copies: 10.

Series [2] addresses T2, ScDmc1 wt (UniProt P25453 1-334).
T2 sequence: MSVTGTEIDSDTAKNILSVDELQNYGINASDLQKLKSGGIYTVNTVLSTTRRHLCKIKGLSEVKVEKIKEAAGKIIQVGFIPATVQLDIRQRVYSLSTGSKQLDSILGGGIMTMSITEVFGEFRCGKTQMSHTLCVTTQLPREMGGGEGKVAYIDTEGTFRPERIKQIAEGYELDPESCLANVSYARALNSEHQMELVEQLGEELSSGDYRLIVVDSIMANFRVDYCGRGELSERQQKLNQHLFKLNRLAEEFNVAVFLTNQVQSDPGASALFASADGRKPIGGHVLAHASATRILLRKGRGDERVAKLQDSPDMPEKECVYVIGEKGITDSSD
Nature of the series: cryo-EM; 2 mM ATP, 5 mM Ca2+; presynaptic complex; hRAD51: 25 mM HEPES pH 7.5, 25 mM KCl, 4 mM MgCl2, 4 mM AMP-PNP, 37 C; ScDmc1: 35 mM Tris-HCl pH 7.5, 96 mM KCl, 2 mM ATP, 5 mM CaCl2, 1 mM DTT, 37 C. Strand-exchange/smFRET activity assays and MM-GBSA energies not listed. Conditions: protein: recombinant; tags: His6.

For series [3], the target named is T1, hRAD51 wt. Nature of the series: cryo-EM; AMP-PNP, Mg2+, Hop2-Mnd1 added to trigger exchange, no RS-1; postsynaptic complex; hRAD51: 25 mM HEPES pH 7.5, 25 mM KCl, 4 mM MgCl2, 4 mM AMP-PNP, 37 C; ScDmc1: 35 mM Tris-HCl pH 7.5, 96 mM KCl, 2 mM ATP, 5 mM CaCl2, 1 mM DTT, 37 C. Strand-exchange/smFRET activity assays and MM-GBSA energies not listed. Conditions: protein: recombinant; chain copies: 16; blunt.

The target in a further series is hRAD51 273-PG-274 (Homo sapiens (human), UniProt Q06609 1-339, V273P;D274G). Nature of the series: cryo-EM; AMP-PNP, Mg2+, Hop2-Mnd1 added, no RS-1; postsynaptic complex; hRAD51: 25 mM HEPES pH 7.5, 25 mM KCl, 4 mM MgCl2, 4 mM AMP-PNP, 37 C; ScDmc1: 35 mM Tris-HCl pH 7.5, 96 mM KCl, 2 mM ATP, 5 mM CaCl2, 1 mM DTT, 37 C. Strand-exchange/smFRET activity assays and MM-GBSA energies not listed. As to conditions: protein: recombinant; chain copies: 16; blunt.

The target of series [4] is T2, ScDmc1 wt. Nature of the series: cryo-EM; 2 mM ATP, 5 mM Ca2+, Hop2-Mnd1 added; postsynaptic complex; hRAD51: 25 mM HEPES pH 7.5, 25 mM KCl, 4 mM MgCl2, 4 mM AMP-PNP, 37 C; ScDmc1: 35 mM Tris-HCl pH 7.5, 96 mM KCl, 2 mM ATP, 5 mM CaCl2, 1 mM DTT, 37 C. Strand-exchange/smFRET activity assays and MM-GBSA energies not listed. As to conditions: protein: recombinant; tags: His6; blunt.

Series [5] concerns the molecule itself. Nature of the series: cryo-EM structure; helical filaments of 2 uM hRAD51 on 150-mer ssDNA with 2 uM RS-1 (presynaptic, wt only) or after strand exchange with dsDNA and 0.2 uM Hop2-Mnd1 without RS-1 (postsynaptic, wt and 273-PG-274); 25 mM HEPES pH 7.5, 25 mM KCl, 4 mM MgCl2, 4 mM AMP-PNP, 37°C.
Series [6] deals with the molecule itself. Nature of the series: cryo-EM structure; helical filaments of 4 uM ScDmc1 on 150-mer ssDNA (presynaptic) or after strand exchange with 150-bp dsDNA and 0.4 uM Hop2-Mnd1 (postsynaptic); 35 mM Tris-HCl pH 7.5, 96 mM KCl, 2 mM ATP, 5 mM CaCl2, 1 mM DTT, 37°C.

B1: 150-mer ssDNA oligo 4 (ssDNA)
DNA: TAAATAAGATAAGGATAATACAAAATAAGTAAATGAATAAACAGAGAAAATAAAGTAAAGGATATAAAAAATGAACATAAAGAATAAGTAAATGAATAAAACATAATAGGAATAAATATAGGAAATGAAATAAAAGAGACATAAATAAGA
On to B1, for which the binding result with hRAD51 wt [1] and with ScDmc1 wt [2] was “binds” in each case.

B2: 150-bp homologous dsDNA oligo 4/oligo 5 (postsynaptic) (dsDNA)
DNA 1: B1 DNA
DNA 2: TCTTATTTATGTCTCTTTTATTTCATTTCCTATATTTATTCCTATTATGTTTTATTCATTTACTTATTCTTTATGTTCATTTTTTATATCCTTTACTTTATTTTCTCTGTTTATTCATTTACTTATTTTGTATTATCCTTATCTTATTTA
As for B2, the binding result in the series with hRAD51 wt [3], with hRAD51 273-PG-274 and in the series with ScDmc1 wt [4] was “binds” each time.

B3: human RAD51 mutant 273-PG-274 (natural protein)
chain: MAMQMQLEANADTSVEEESFGPQPISRLEQCGINANDVKKLEEAGFHTVEAVAYAPKKELINIKGISEAKADKILAEAAKLVPMGFTTATEFHQRRSEIIQITTGSKELDKLLQGGIETGSITEMFGEFRTGKTQICHTLAVTCQLPIDRGGGEGKAMYIDTEGTFRPERLLAVAERYGLSGSDVLDNVAYARAFNTDHQTQLLYQASAMMVESRYALLIVDSATALYRTDYSGRGELSARQMHLARFLRMLLRLADEFGVAVVITNQVVAQPGGAAMFAADPKKPIGGNIIAHASTTRLYLRKGRGETRICKIYDSPCLPEAEAMFAINADGVGDAKD
notes: RAD51 recombinase, human, with V273 and D274 of Loop2 changed to P and G (the residues of hDMC1); made from the hRAD51 wt construct by point mutation; Stood as a helical filament on dsDNA (postsynaptic complex, without RS-1); Only an EM map is deposited (EMD-31155), no PDB model; also called PG mutant; source: E. coli BLR(DE3) plysS (RecA-deficient), purified as hRAD51 wt
Consider B3, for which the binding result in series [5] is recorded as “binds”.

B4: yeast Dmc1 wild type (natural protein)
chain: T2 sequence
notes: Dmc1 meiotic recombinase, yeast (ScDmc1); wt construct pNRB150, a gift from Dr Zhi Qi; Stood as a helical filament on ssDNA (presynaptic) or dsDNA (postsynaptic) with ATP-Ca2+; The stored protein is named His6-ScDmc1 and no cleavage of the tag is described; also called ScDmc1; ScDmc1 wt; source: E. coli BLR(DE3) plysS (RecA-deficient), purified (Talon beads, Heparin)
For B4, the binding result in series [6] was “binds”.
